# Data taken from US20130143793A1 (ZEALAND PHARMA A S, published 2013).
# Bridge positions count the residues as written; N and C are the ends. Square brackets hold non-standard residues; d marks the D form. Ends that are not written are not given here. Orn = NCCC[C@H](N)C(=O)O
# T1: human CCK-B receptor (human, UniProt P32239 1-447)
# T1 sequence (looked up): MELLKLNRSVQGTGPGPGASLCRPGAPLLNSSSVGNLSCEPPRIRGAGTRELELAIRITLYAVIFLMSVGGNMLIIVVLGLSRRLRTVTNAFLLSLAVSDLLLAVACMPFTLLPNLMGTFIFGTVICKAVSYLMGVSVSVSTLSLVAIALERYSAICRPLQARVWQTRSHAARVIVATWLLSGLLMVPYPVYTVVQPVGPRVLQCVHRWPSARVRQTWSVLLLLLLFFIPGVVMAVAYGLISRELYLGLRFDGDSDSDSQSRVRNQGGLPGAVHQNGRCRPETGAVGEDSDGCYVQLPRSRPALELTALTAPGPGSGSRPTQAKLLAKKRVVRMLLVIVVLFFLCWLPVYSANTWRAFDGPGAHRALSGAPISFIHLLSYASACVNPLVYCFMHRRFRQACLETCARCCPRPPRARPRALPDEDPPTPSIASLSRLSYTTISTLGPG
# Experiments:
# human GLP-1 receptor = human GLP-1 receptor (human, UniProt P43220 24-463); experiment: cell-based or functional assay
# human CCK-B receptor = molecular target: T1, human CCK-B receptor; experiment: cell-based or functional assay
Binder,hGLP-1 R EC50 (cAMP) (human GLP-1 receptor),hCCK-B R EC50 (p-ERK) (human CCK-B receptor)
"HGEGTFTSELSKYLEEEAVRLFIEFLK[Peg3][Peg3]YGFLDF-NH2 [[Glu9,Leu14,Phe25,Tyr13]Exendin-4(1-27)-Peg3-Peg3-[Leu4,Phe3]Gastrin6]",0.032 nM,1300 nM
HGEGTFTSDLSKQMEEEAVRLFIEWLKDXXYGWLDF (Peg3-Peg3 linker; C-terminal amide) [[Asp28]Exendin-4(1-28)-Peg3-Peg3-[Leu4]Gastrin6],0.061 nM,3.3 nM
HGEGTFTSDLSKYMEEEAVRLFIEWLKN[Peg3][Peg3]YGWLDF-NH2 [[Tyr13]Exendin-4(1-28)-Peg3-Peg3-[Leu4]Gastrin6],0.046 nM,12 nM
"HGEGTFTSELSKYLEEEAVRLFIEFLK[Peg3][Orn]WLDF-NH2 [[Glu9,Leu14,Phe25,Tyr13]Exendin-4(1-27)-Peg3-Orn-[Leu2]Gastrin4]",0.041 nM,51 nM
"HGEGTFTSDLSKQMEEEAVKLFIEWLKN[Peg3][Peg3]YGWLDF-NH2 (lactam 16-20) [Side chain-cyclo([Glu16,Lys20]Exendin-4(1-28)-Peg3-Peg3-[Leu4]Gastrin6]",0.026 nM,–
"HGEGTFTSDLSKYLEEEAVRLFIEFLR[Peg3]YGWLDF-NH2 [[Arg27,Leu14,Phe25,Tyr13]Exendin-4(1-27)-Peg3-[Leu4]Gastrin6]",0.068 nM,18 nM
"HGEGTFTSELSKYLEEEAVRLFIEFLK[Peg3][Orn]YGWLDF-NH2 [[Glu9,Leu14,Phe25,Tyr13]Exendin-4(1-27)-Peg3-Orn-[Leu4]Gastrin6]",0.087 nM,8.8 nM
"HGEGTFTSELSKYLEEEAVRLFIEFLK[Peg3][Peg3]YGWLDF-NH2 [[Glu9,Leu14,Phe25,Tyr13]Exendin-4(1-27)-Peg3-Peg3-[Leu4]Gastrin6]",0.046 nM,20 nM
"HGEGTFTSELSKYLEEEAVRLFIEFLKYGWLDF-NH2 [[Glu9,Leu14,Phe25,Tyr13]Exendin-4(1-27)-[Leu4]Gastrin6]",0.11 nM,30 nM
HGEGTFTSDLSKQMEEEAV[Orn]LFIEWLKN[Peg3][Peg3]YGWLDF-NH2 [[Orn20]Exendin-4(1-28)-Peg3-Peg3-[Leu4]Gastrin6],0.038 nM,15 nM
"HGEGTFTSELSKYLEEEAVRLFIEFLK[Orn][Peg3]WLDF-NH2 [[Glu9,Leu14,Phe25,Tyr13]Exendin-4(1-27)-Orn-Peg3-[Leu2]Gastrin4]",0.046 nM,10 nM
"HGEGTFTSELSKYLEEEAVRLFIEFLKWLDF-NH2 [[Glu9,Leu14,Phe25,Tyr13]Exendin-4(1-27)-[Leu2]Gastrin4]",1.2 nM,211 nM
"HGEGTFTSELSKYLEEEAVRLFIEFLK[Peg3]YGWLDF-NH2 [[Glu9,Leu14,Phe25,Tyr13]Exendin-4(1-27)-Peg3-[Leu4]Gastrin6]",–,54 nM
"HGEGTFTSDLSRYLEEEAVRLFIEFLK[Peg3]YGWLDF-NH2 [[Arg12,Leu14,Phe25,Tyr13]Exendin-4(1-27)-Peg3-[Leu4]Gastrin6]",0.079 nM,14 nM
"HGEGTFTSDLSRYLEKEAVRLFIEFLR[Peg3]YGWLDF-NH2 [[Arg12,27,Leu14,Lys16,Phe25,Tyr13]Exendin-4(1-27)-Peg3-[Leu4]Gastrin6]",0.17 nM,26 nM
"HGEGTFTSELSKYLEEEAVRLFIEFLK[Peg3]WLDF-NH2 [[Glu9,Leu14,Phe25,Tyr13]Exendin-4(1-27)-Peg3-[Leu2]Gastrin4]",0.06 nM,13 nM

Binder,hGLP-1 R EC50 (cAMP) (human GLP-1 receptor),hCCK-B R EC50 (p-ERK) (human CCK-B receptor)
"HGEGTFTSDLSKYLEEEAVRLFIEWLK[Peg3][Peg3]YGWLDF-NH2 [[Tyr13,Leu14]Exendin-4(1-27)-Peg3-Peg3-[Leu4]Gastrin6]",0.05 nM,8.4 nM
"HGEGTFTSELSKYLEEEAVRLFIEFLK[Orn][Peg3]YGWLDF-NH2 [[Glu9,Leu14,Phe25,Tyr13]Exendin-4(1-27)-Orn-Peg3-[Leu4]Gastrin6]",0.12 nM,100 nM
"HGEGTFTSELSKYLEEEAVRLFIEFLK[Orn][Orn]WLDF-NH2 (N-terminus assumed; SMILES CC[C@H](C)[C@H](NC(=O)[C@H](Cc1ccccc1)NC(=O)[C@H](CC(C)C)NC(=O)[C@H](CCCNC(=N)N)NC(=O)[C@@H](NC(=O)[C@H](C)NC(=O)[C@H](CCC(=O)O)NC(=O)[C@H](CCC(=O)O)NC(=O)[C@H](CCC(=O)O)NC(=O)[C@H](CC(C)C)NC(=O)[C@H](Cc1ccc(O)cc1)NC(=O)[C@H](CCCCN)NC(=O)[C@H](CO)NC(=O)[C@H](CC(C)C)NC(=O)[C@H](CCC(=O)O)NC(=O)[C@H](CO)NC(=O)[C@@H](NC(=O)[C@H](Cc1ccccc1)NC(=O)[C@@H](NC(=O)CNC(=O)[C@H](CCC(=O)O)NC(=O)CNC(=O)[C@@H](N)Cc1c[nH]cn1)[C@@H](C)O)[C@@H](C)O)C(C)C)C(=O)N[C@@H](CCC(=O)O)C(=O)N[C@@H](Cc1ccccc1)C(=O)N[C@@H](CC(C)C)C(=O)N[C@@H](CCCCN)C(=O)N[C@@H](CCCN)C(=O)N[C@@H](CCCN)C(=O)N[C@@H](Cc1c[nH]c2ccccc12)C(=O)N[C@@H](CC(C)C)C(=O)N[C@@H](CC(=O)O)C(=O)N[C@@H](Cc1ccccc1)C(N)=O) [[Glu9,Leu14,Phe25,Tyr13]Exendin-4(1-27)-Orn-Orn-[Leu2]Gastrin4]",0.11 nM,860 nM
"HGEGTFTSDLSRYLEEEAVRLFIKFLR[Peg3]YGWLDF-NH2 [[Arg12,27,Leu14,Lys24,Phe25,Tyr13]Exendin-4(1-27)-Peg3-[Leu4]Gastrin6]",0.13 nM,36 nM
"HGEGTFTSDLSKYLEEEAVRLFIEFLK[Peg3][Peg3]YGWLDF-NH2 [[Tyr13,Leu14,Phe25]Exendin-4(1-27)-Peg3-Peg3-[Leu4]Gastrin6]",0.044 nM,–
HGEGTFTSDLSKQMEEEAVRLFIEWLKEEEEAYGWLDF (C-terminal amide) [Exendin-4(1-27)-[Leu4]Gastrin11],0.1 nM,4.3 nM
"HGEGTFTSELSKYLEEEAVRLFIEFLK[Orn][Orn]YGWLDF-NH2 (N-terminus assumed; SMILES CC[C@H](C)[C@H](NC(=O)[C@H](Cc1ccccc1)NC(=O)[C@H](CC(C)C)NC(=O)[C@H](CCCNC(=N)N)NC(=O)[C@@H](NC(=O)[C@H](C)NC(=O)[C@H](CCC(=O)O)NC(=O)[C@H](CCC(=O)O)NC(=O)[C@H](CCC(=O)O)NC(=O)[C@H](CC(C)C)NC(=O)[C@H](Cc1ccc(O)cc1)NC(=O)[C@H](CCCCN)NC(=O)[C@H](CO)NC(=O)[C@H](CC(C)C)NC(=O)[C@H](CCC(=O)O)NC(=O)[C@H](CO)NC(=O)[C@@H](NC(=O)[C@H](Cc1ccccc1)NC(=O)[C@@H](NC(=O)CNC(=O)[C@H](CCC(=O)O)NC(=O)CNC(=O)[C@@H](N)Cc1c[nH]cn1)[C@@H](C)O)[C@@H](C)O)C(C)C)C(=O)N[C@@H](CCC(=O)O)C(=O)N[C@@H](Cc1ccccc1)C(=O)N[C@@H](CC(C)C)C(=O)N[C@@H](CCCCN)C(=O)N[C@@H](CCCN)C(=O)N[C@@H](CCCN)C(=O)N[C@@H](Cc1ccc(O)cc1)C(=O)NCC(=O)N[C@@H](Cc1c[nH]c2ccccc12)C(=O)N[C@@H](CC(C)C)C(=O)N[C@@H](CC(=O)O)C(=O)N[C@@H](Cc1ccccc1)C(N)=O) [[Glu9,Leu14,Phe25,Tyr13]Exendin-4(1-27)-Orn-Orn-[Leu4]Gastrin6]",0.11 nM,16 nM
HGEGTFTSDLSKQMEEEAVRLFIEWLKNYGWTDF (C-terminal amide) [Exendin-4(1-28)-[Thr4]Gastrin6],0.044 nM,58 nM
HGEGTFTSDLSKQMEEEAVRLFIEWLKNYGWLDF (C-terminal amide) [Exendin-4(1-28)-[Leu4]Gastrin6],0.061 nM,14 nM
HGEGTFTSDLSKQLEEEAVRLFIEWLKNYGWXDF (Nle at position 4 of the Gastrin6 moiety; C-terminal amide) [[Leu14]Exendin-4(1-28)-[Nle4]Gastrin6],0.052 nM,24 nM
"HGEGTFTSDLSKQLEEEAVRLFIEWLKNYGWLDX (3-(3-Pyridyl)-alanine at position 6 of the Gastrin6 moiety; C-terminal amide) [[Leu14]Exendin-4(1-28)-[Leu4,[3-(3-Pyridyl)-Ala]6]Gastrin6]",–,20 nM
"HGEGTFTSDLSKQLEEEAVRLFIEWLKNYGXLDF (1Nal (1-naphthylalanine) at position 3 of the Gastrin6 moiety; C-terminal amide) [[Leu14]Exendin-4(1-28)-[1Nal3,Leu4]Gastrin6]",0.04 nM,270 nM
HGEGTFTSDLSKQMEEEAVRLFIEWLKNYGWFDF (C-terminal amide) [Exendin-4(1-28)-[Phe4]Gastrin6],0.044 nM,140 nM
"HGEGTFTSDLSKYLEEEAVRLFIEFLK[Peg3][Peg3]YGFLDF-NH2 [[Leu14,Phe25,Tyr13]Exendin-4(1-27)-Peg3-Peg3-[Leu4,Phe3]Gastrin6]",–,1200 nM
"HGEGTFTSDLSRYLEEEAVKLFIEFLR[Peg3]YGWLDF-NH2 [[Arg12,27,Leu14,Lys20,Phe25,Tyr13]Exendin-4(1-27)-Peg3-[Leu4]Gastrin6]",0.058 nM,26 nM
